According to PMC10397247:

Tests used:
[1] = target: T1, 4H3497-bN; assay: two-hybrid library CCNG1;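 also: natural log of median RNA to DNA barcode read ratio; higher means stronger binding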
T1 chain: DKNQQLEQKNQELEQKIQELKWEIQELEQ

[2] = target: T2, 4H3462-bN; assay: two-hybrid library CCNG1;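 also: natural log of median RNA to DNA barcode read ratio; higher means stronger binding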
T2 chain: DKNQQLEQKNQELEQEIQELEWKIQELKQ

[3] = target: T3, 4H626-bN; assay: two-hybrid library CCNG1;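 also: natural log of median RNA to DNA barcode read ratio; higher means stronger binding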
T3 chain: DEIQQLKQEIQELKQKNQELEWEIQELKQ

[4] = target: T4, 4H3298-bN; assay: two-hybrid library CCNG1;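 also: natural log of median RNA to DNA barcode read ratio; higher means stronger binding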
T4 chain: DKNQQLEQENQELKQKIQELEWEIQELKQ

[5] = target: T5, 4H591-bN; assay: two-hybrid library CCNG1;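 also: natural log of median RNA to DNA barcode read ratio; higher means stronger binding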
T5 chain: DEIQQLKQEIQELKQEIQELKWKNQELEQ

[6] = target: T6, 4H906-bN; assay: two-hybrid library CCNG1;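 also: natural log of median RNA to DNA barcode read ratio; higher means stronger binding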
T6 chain: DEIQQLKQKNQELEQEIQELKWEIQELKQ

[7] = target: T7, 4H3926-bN; assay: two-hybrid library CCNG1
T7 chain: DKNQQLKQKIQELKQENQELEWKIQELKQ

[8] = target: T8, 4H3613-bN; assay: two-hybrid library CCNG1
T8 chain: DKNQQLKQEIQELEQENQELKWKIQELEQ

[9] = target: T9, 4H3628-bN; assay: two-hybrid library CCNG1
T9 chain: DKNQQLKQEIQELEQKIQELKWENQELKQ

[10] = target: T10, P2-AA; assay: two-hybrid library CCmax; settings: mean of both orientations
T10 chain: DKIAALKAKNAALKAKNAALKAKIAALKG

[11] = target: T11, P2-AA-1HAA-V; assay: two-hybrid library CCmax; settings: mean of both orientations
T11 chain: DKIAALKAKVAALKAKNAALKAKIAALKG

[12] = target: T12, P2-AA-1HAA-D; assay: two-hybrid library CCmax; settings: mean of both orientations
T12 chain: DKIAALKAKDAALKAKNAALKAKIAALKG

[13] = target: T13, P2-AA-1HAA-T; assay: two-hybrid library CCmax; settings: mean of both orientations
T13 chain: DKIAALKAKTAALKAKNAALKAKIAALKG

[14] = target: T14, P2-AA-1HAA-E; assay: two-hybrid library CCmax; settings: mean of both orientations
T14 chain: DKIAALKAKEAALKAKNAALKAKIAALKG

[15] = target: T15, P2-AA-1HAA-R; assay: two-hybrid library CCmax; settings: mean of both orientations
T15 chain: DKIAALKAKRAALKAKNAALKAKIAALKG

[16] = target: T16, P2-AA-1HAA-I; assay: two-hybrid library CCmax; settings: mean of both orientations
T16 chain: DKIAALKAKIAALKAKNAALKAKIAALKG

[17] = target: T17, 4H949-bA; assay: two-hybrid library CCNG1
T17 chain: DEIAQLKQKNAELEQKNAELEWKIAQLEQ

[18] = target: T18, 4H796-bA; assay: two-hybrid library CCNG1
T18 chain: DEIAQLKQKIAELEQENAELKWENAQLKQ

[19] = target: T19, 4H2931-bA; assay: two-hybrid library CCNG1
T19 chain: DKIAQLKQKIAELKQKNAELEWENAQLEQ

[20] = target: T20, 4H56-bA; assay: two-hybrid library CCNG1
T20 chain: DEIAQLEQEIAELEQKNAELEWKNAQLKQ

[21] = target: T21, 4H2859-bA; assay: two-hybrid library CCNG1
T21 chain: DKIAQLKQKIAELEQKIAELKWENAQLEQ

[22] = target: T22, 4H626-bA; assay: two-hybrid library CCNG1
T22 chain: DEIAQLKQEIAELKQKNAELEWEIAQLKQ

[23] = target: T23, 4H3297-bA; assay: two-hybrid library CCNG1
T23 chain: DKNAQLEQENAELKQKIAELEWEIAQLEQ

[24] = target: T24, 4H967-bN; assay: two-hybrid library CCNG1
T24 chain: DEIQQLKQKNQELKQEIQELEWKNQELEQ

[25] = target: T25, 4H3041-bA; assay: two-hybrid library CCNG1
T25 chain: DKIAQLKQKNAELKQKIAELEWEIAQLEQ

[26] = target: T26, 4H3364-bA; assay: two-hybrid library CCNG1
T26 chain: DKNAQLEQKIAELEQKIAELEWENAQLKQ

[27] = target: T27, 4H2760-bN; assay: two-hybrid library CCNG1
T27 chain: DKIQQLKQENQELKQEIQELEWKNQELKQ

[28] = target: T28, 4H730-bA; assay: two-hybrid library CCNG1
T28 chain: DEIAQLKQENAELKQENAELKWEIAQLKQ

[29] = target: T29, 4H2760-bA; assay: two-hybrid library CCNG1
T29 chain: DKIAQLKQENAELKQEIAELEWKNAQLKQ

[30] = target: T30, 4H3381-bA; assay: two-hybrid library CCNG1
T30 chain: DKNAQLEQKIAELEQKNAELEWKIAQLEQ

[31] = target: T31, 4H349-bA; assay: two-hybrid library CCNG1
T31 chain: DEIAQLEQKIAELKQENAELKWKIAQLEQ

[32] = target: T32, 4H932-bA; assay: two-hybrid library CCNG1
T32 chain: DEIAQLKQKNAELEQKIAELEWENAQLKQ

[33] = target: T33, P7SHb; assay: two-hybrid library CCNG1
T33 chain: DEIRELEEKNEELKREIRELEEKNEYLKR

[34] = target: T34, P9SHb; assay: two-hybrid library CCNG1
T34 chain: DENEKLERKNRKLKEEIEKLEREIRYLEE

[35] = target: T35, P8SHb; assay: two-hybrid library CCNG1
T35 chain: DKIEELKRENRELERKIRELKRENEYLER

## DKNQQLEQENQELKQKIQELEWEIQELKQ [4H3298-bN]
[1]
  interaction score: -1.06
[2]
  interaction score: -0.0887
[3]
  interaction score: -1.27
[4]
  interaction score: -2.82
[5]
  interaction score: -0.882
[6]
  interaction score: -0.217
[7]
  interaction score: -1.32
[8]
  interaction score: -1.42
[9]
  interaction score: -0.916

## DEIAALEAEYAALEAENAALEAEIAALEG [P1-AA-1HAA-Y]
[10]
  interaction score: 2.07
[11]
  interaction score: 1.99
[12]
  interaction score: 0.371
[13]
  interaction score: 1.95
[14]
  interaction score: 0.866
[15]
  interaction score: 1.52
[16]
  interaction score: 2.07

## DKIAQLKQENAELKQEIAELEWKNAQLKQ [4H2760-bA]
[17]
  interaction score: -1.14
[18]
  interaction score: -0.576
[19]
  interaction score: -0.0923
[20]
  interaction score: -1.54
[21]
  interaction score: 0.0768
[22]
  interaction score: -2.94
[23]
  interaction score: 1.18
[24]
  interaction score: -2.38
[25]
  interaction score: 0.518
[26]
  interaction score: 0.448
[27]
  interaction score: -1.33
[28]
  interaction score: -0.287
[29]
  interaction score: 0.895
[30]
  interaction score: -0.726
[31]
  interaction score: -0.95
[32]
  interaction score: 0.295

## DEIRELEEKNEELKREIRELEEKNEYLKR [P7SHb]
[33]
  interaction score: -0.618
[34]
  interaction score: 0.021
[35]
  interaction score: 1.18
